Experimental data reported in patent US20140242080A1 (Hoffmann-La Roche, published 2014).

T1: muFcγRIV-aviHis-biotin (murine, UniProt A0A0B4J1G0 21-203, Biotinylated at the avi tag (tag not included in the letters))
T1 construct: Captured by anti-Penta His antibody; also called murine FcγRIV; not shown: exact C-terminal limit of the soluble construct
T1 sequence: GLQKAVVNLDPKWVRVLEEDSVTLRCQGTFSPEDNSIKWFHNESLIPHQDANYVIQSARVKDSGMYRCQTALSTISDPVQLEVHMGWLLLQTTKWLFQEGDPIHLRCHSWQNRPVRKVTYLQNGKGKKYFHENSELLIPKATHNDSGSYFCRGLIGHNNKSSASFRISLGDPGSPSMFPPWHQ

T2: cynomolgus MCSP D3 (cynomolgus, UniProt Q6UVK1 1582-2224 (human entry), limits assumed)
T2 construct: also called Cyno MCSP; cynomolgus homologue
T2 chain: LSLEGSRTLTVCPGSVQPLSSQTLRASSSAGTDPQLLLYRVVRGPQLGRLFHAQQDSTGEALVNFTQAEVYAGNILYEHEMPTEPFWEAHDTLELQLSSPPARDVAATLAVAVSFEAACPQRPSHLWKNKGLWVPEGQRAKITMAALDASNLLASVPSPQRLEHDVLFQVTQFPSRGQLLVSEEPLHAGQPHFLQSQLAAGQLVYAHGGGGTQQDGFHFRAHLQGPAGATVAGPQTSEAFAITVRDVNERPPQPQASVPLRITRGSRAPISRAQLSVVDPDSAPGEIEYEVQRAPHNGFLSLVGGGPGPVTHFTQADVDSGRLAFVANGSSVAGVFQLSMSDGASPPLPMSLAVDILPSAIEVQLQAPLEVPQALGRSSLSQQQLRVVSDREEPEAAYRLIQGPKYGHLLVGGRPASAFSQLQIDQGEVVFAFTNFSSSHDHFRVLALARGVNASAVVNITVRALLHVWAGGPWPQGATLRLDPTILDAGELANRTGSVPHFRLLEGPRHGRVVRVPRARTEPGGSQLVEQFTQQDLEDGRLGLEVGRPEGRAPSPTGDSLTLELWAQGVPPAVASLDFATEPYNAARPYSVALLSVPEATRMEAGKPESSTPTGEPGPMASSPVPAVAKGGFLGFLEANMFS

T3: hu-MCSP(D3 domain)-avi-his (human, UniProt Q6UVK1 1582-2224)
T3 construct: Recombinant D3 domain with avi and his tags; also called human MCSP(D3 domain)-avi-his; Human MCSP D3
T3 sequence: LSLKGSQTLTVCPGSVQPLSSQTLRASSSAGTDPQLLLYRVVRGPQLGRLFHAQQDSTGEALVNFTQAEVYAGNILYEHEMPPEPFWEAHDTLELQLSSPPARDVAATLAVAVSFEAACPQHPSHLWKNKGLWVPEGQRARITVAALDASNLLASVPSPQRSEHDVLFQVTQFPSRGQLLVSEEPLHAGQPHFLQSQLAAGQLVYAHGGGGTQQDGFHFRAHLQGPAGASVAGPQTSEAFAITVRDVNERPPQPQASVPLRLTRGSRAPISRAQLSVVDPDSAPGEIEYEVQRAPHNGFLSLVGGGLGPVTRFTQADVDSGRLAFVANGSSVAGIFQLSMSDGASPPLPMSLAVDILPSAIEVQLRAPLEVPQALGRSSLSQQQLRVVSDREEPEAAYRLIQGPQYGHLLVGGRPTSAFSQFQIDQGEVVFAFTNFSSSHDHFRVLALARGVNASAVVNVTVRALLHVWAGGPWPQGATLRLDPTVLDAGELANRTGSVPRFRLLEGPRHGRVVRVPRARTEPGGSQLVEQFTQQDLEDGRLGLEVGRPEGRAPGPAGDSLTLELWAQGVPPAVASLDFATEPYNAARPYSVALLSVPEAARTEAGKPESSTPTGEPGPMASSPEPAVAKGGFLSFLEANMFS

T4: murine MCSP D3 (murine, UniProt Q8VHY0 1587-2218, limits assumed)
T4 construct: also called recombinant murine MCSP D3
T4 sequence: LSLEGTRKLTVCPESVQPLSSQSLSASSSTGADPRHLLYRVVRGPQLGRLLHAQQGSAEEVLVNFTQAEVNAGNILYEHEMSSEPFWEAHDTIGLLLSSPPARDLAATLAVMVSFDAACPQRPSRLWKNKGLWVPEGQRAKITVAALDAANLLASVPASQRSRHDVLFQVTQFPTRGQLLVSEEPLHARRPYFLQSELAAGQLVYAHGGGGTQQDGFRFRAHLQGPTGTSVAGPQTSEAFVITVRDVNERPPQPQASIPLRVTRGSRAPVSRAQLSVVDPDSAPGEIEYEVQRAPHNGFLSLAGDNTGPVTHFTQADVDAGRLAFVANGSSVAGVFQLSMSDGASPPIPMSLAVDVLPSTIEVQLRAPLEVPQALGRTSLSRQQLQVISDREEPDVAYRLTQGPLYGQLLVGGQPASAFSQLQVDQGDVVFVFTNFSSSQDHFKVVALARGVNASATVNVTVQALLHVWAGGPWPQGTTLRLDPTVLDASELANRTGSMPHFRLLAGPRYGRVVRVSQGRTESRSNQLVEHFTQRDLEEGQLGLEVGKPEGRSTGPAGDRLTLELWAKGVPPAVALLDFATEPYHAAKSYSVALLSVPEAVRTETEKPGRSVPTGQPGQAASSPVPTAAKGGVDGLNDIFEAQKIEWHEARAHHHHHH

B1: “2+1 IgG scFab, wt” (anti-MCSP/anti-huCD3) (bispecific antibody)
chain 1: DIVLTQSPSSLSASLGDRVTISCSASQGIRNYLNWYQQRPDGTVKLLIYYTSSLHSGVPSRFSGSGSGTDYSLTISNLEPEDIATYYCQQYSKLPWTFGGGTKLEIKRTVAAPSVFIFPPSDEQLKSGTASVVCLLNNFYPREAKVQWKVDNALQSGNSQESVTEQDSKDSTYSLSSTLTLSKADYEKHKVYACEVTHQGLSSPVTKSFNRGEC
chain 2: not shown
chain 3: not shown
notes: Wild-type Fc domain; also called Fc-wt; copies: 2 + 1 + 1
B2: MCSP TCB (2+1 Crossfab-IgG P329G LALA inverted) (bispecific antibody)
light 1: not shown
light 2: QAVVTQEPSLTVSPGGTVTLTCGSSTGAVTTSNYANWVQEKPGQAFRGLIGGTNKRAPGTPARFSGSLLGGKAALTLSGAQPEDEAEYYCALWYSNLWVFGGGTKLTVLSSASTKGPSVFPLAPSSKSTSGGTAALGCLVKDYFPEPVTVSWNSGALTSGVHTFPAVLQSSGLYSLSSVVTVPSSSLGTQTYICNVNHKPSNTKVDKKVEPKSC
heavy 1: not shown
heavy 2: QVQLQESGPGLVKPSQTLSLTCTVSGGSITSGYYWNWIRQHPGKGLEWIGYITFDGSNNYNPSLKSRVTISRDTSKNQFSLKLSSVTAADTAVYYCADFDYWGQGTLVTVSSASTKGPSVFPLAPSSKSTSGGTAALGCLVKDYFPEPVTVSWNSGALTSGVHTFPAVLQSSGLYSLSSVVTVPSSSLGTQTYICNVNHKPSNTKVDKKVEPKSCDKTHTCPPCPAPEAAGGPSVFLFPPKPKDTLMISRTPEVTCVVVDVSHEDPEVKFNWYVDGVEVHNAKTKPREEQYNSTYRVVSVLTVLHQDWLNGKEYKCKVSNKALGAPIEKTISKAKGQPREPQVCTLPPSRDELTKNQVSLSCAVKGFYPSDIAVEWESNGQPENNYKTTPPVLDSDGSFFLVSKLTVDKSRWQQGNVFSCSVMHEALHNHYTQKSLSLSPGK
notes: also called MCSP TCB antibody; MCSP CD3 bispecific antibody

Tests used:
muFcγRIV-aviHis-biotin [1] = biological target: T1, muFcγRIV-aviHis-biotin; assay: SPR Biacore T100, 25 C; receptor captured via anti-Penta His, construct as analyte; steady state
Procedure: (§1) For analyzing interaction of different Fc-variants with human FcγRIIIa-V158 and murine FcγRIV direct coupling of around 6,500 resonance units (RU) of the anti-Penta His antibody (Qiagen) is performed on a CM5 chip at pH 5.0 using the standard amine coupling kit (Biacore, Freiburg/Germany). HuFcγRIIIa-V158-K6H6 and muFcγRIV-aviHis-biotin are captured for 60 s at 4 and 10 nM respectively.
(§2) Constructs with different Fc-mutations are passed through the flow cells for 120 s at a concentration of 1000 nM with a flow rate of 30 μl/min. The dissociation is monitored for 220 s. Bulk refractive index differences are corrected for by subtracting the response obtained in a reference flow cell. […] Affinity for human FcγRIIIa-V158 and murine FcγRIV was determined for wild-type Fc using a concentration range from 500-4000 nM.
(§3) The steady state response was used to derive the dissociation constant KD by non-linear curve fitting of the Langmuir binding isotherm. Kinetic constants were derived using the Biacore T100 Evaluation Software (vAA, Biacore AB, Uppsala/Sweden), to fit rate equations for 1:1 Langmuir binding by numerical integration.

HuFcγRIIIa-V158-K6H6 [2] = biological target: T5, HuFcγRIIIa-V158-K6H6 (human, UniProt P08637 17-208, limits assumed); assay: as above
T5 construct: His-tagged recombinant receptor captured by anti-Penta His antibody; also called human FcγRIIIa-V158; human FcγRIIIa
T5 sequence (P08637 17-208 F176V limits assumed): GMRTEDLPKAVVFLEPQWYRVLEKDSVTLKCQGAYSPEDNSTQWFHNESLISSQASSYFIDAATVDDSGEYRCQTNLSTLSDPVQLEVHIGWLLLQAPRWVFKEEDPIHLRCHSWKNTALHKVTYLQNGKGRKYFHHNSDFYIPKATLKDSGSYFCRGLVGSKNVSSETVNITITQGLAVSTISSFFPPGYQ
Procedure: as §1, §2, §3

HuFcγRIIIa-V158-K6H6 [3] = biological target: T5, HuFcγRIIIa-V158-K6H6; assay: SPR Biacore T100, 25 C; receptor captured via anti-Penta His, construct as analyte; kinetic, one concentration (1000 nM)
Procedure: as §1, §2

HuFcγRIIIa-V158-K6H6 [4] = biological target: T5, HuFcγRIIIa-V158-K6H6; assay: SPR Biacore T100, 25 C; receptor captured via anti-Penta His, construct as analyte; kinetic, value in brackets not explained
Procedure: as §1, §2, §3

muFcγRIV-aviHis-biotin [5] = biological target: T1, muFcγRIV-aviHis-biotin; assay: SPR Biacore T100, 25 C; receptor captured via anti-Penta His, construct as analyte; kinetic
Procedure: as §1, §2, §3

cynomolgus MCSP D3 [6] = biological target: T2, cynomolgus MCSP D3; assay: SPR Biacore T100, 25 C; t1/2 = ln 2/koff
Procedure: (§4) Capture IgG was coupled to the sensorchip surface by direct immobilization of around 7,500 resonance units (RU) at pH 5.0 using the standard amine coupling kit (Biacore, Freiburg/Germany). […] Since the interaction with murine MCSP (SEQ ID NO: 380) was expected to be weak the concentration range for this antigen was chosen between 3.9 and 500 nM. The dissociation for all interactions was monitored for 120 s. Bulk refractive index differences were corrected for by subtracting the response obtained on a reference flow cell.
(§5) Kinetic constants were derived using the Biacore T200 Evaluation Software (vAA, Biacore AB, Uppsala/Sweden), to fit rate equations for 1:1 Langmuir binding by numerical integration. […] The half-life (t_{1/2}) of the interaction was calculated using following formula: t_{1/2}=ln 2/koff.

[7] = biological target: T3, hu-MCSP(D3 domain)-avi-his; assay: SPR Biacore T100, 25 C; t1/2 = ln 2/koff
Procedure: as §4, §5

[8] = biological target: T6, human CD3ε stalk-Fc (knob)-Avi/CD3δ-stalk-Fc(hole) (human); assay: SPR Biacore T100, 25 C; t1/2 = ln 2/koff
T6 construct: also called Human CD3ε/CD3δ; recombinant CD3ε/CD3δ
T6 sequence (chain, as listed by the source mutant limits assumed, chain 1 of 2): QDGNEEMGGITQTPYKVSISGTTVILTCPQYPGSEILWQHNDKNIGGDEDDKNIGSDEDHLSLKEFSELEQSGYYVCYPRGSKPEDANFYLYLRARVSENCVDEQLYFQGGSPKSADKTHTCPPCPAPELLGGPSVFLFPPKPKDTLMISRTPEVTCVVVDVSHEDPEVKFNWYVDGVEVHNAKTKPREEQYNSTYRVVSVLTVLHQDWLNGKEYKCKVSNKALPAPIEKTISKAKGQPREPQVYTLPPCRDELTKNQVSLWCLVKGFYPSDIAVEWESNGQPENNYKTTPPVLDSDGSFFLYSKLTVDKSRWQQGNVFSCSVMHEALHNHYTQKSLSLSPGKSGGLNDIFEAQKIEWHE
T6 sequence (chain, as listed by the source mutant limits assumed, chain 2 of 2): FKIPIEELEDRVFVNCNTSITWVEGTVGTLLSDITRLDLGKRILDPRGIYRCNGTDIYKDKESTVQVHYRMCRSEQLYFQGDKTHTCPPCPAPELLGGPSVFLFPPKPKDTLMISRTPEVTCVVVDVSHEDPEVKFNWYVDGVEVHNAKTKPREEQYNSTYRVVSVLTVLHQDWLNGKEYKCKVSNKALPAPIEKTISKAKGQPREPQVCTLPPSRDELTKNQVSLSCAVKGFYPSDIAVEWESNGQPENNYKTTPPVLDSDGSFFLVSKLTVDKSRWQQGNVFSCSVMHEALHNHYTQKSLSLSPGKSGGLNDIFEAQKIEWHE
Procedure: as §4, §5

murine MCSP D3 = biological target: T4, murine MCSP D3; assay: SPR Biacore T100, 25 C; TCB captured via anti-human Fab, antigen as analyte; steady state
Procedure: as §4, §5

cynomolgus MCSP D3 [9] = biological target: T2, cynomolgus MCSP D3; assay: SPR Biacore T100, 25 C; TCB captured via anti-human Fab, antigen as analyte
Procedure: (§6) Surface plasmon resonance (SPR) experiments were performed on a Biacore T100 at 25° C. with HBS-EP as running buffer (0.01 M HEPES pH 7.4, 0.15 M NaCl, 3 mM EDTA, 0.005% Surfactant P20, Biacore, Freiburg/Germany).
as §4, §5

[10] = biological target: T3, hu-MCSP(D3 domain)-avi-his; assay: as above
Procedure: as §6, §4, §5

[11] = biological target: T6, human CD3ε stalk-Fc …; assay: as above
Procedure: as §6, §4, §5

| Binder | Kd (muFcγRIV-aviHis-biotin [1]) [nM] | Kd (HuFcγRIIIa-V158-K6H6 [2]) [nM] | Kd (HuFcγRIIIa-V158-K6H6 [3]) [nM] | Kd (HuFcγRIIIa-V158-K6H6 [4]) [nM] | Kd (muFcγRIV-aviHis-biotin [5]) [nM] | t1/2 (cynomolgus MCSP D3 [6]) [h] | t1/2 [7] [h] | t1/2 [8] [min] | Kd (murine MCSP D3) [nM] | Kd (cynomolgus MCSP D3 [9]) [nM] | Kd [10] [nM] | Kd [11] [nM] |
| --- | --- | --- | --- | --- | --- | --- | --- | --- | --- | --- | --- | --- |
| B1 | 1500 | 3470 | 600 | 1200 | 576 |  |  |  |  |  |  |  |
| B2 |  |  |  |  |  | 4.38 | 3.42 | 2.9 | 1570 | 0.12 | 0.15 | 78.7 |
